Data on one molecule can be found in patent US20130323813, “PEPTIDES FOR THE SPECIFIC BINDING OF RNA TARGETS” (THE UNIVERSITY OF WESTERN AUSTRALIA, published 2013).

Series [1] has as its target T1, PUM1 PUF CR (repeat 6 Cys12/Arg16) (Homo sapiens, UniProt Q14671 SEQ:1-351).
T1 chain: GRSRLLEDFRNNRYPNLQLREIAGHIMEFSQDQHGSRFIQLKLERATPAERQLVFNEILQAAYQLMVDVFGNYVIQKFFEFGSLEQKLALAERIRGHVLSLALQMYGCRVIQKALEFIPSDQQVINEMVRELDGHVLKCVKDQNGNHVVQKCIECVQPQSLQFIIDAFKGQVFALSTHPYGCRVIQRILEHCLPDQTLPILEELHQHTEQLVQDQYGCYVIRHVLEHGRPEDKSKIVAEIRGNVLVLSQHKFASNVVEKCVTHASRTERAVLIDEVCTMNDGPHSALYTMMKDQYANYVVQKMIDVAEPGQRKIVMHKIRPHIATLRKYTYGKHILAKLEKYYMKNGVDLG
Briefly: EMSA; 10 mM HEPES pH 8.0, 50 mM KCl, 1 mM EDTA, RT. The following applies: tags: intein-CBD cleaved for EMSA; label: 5'-fluorescein. As to the method: (§1) Purified PUF domains were incubated at room temperature for 30 min with fluorescein labeled RNA oligonucleotides (Dharmacon) in 10 mM HEPES (pH 8.0), 1 mM EDTA, 50 mM KCl, 2 mM DTT, 0.1 mg/ml fatty acid-free BSA, and 0.02% Tween-20.
(In general: A gel shift assay detects complexes by their altered migration in electrophoresis.)

Series [2] addresses T2, PUM1 PUF GR (repeat 6 Gly12/Arg16) (Homo sapiens, UniProt Q14671 SEQ:1-351).
T2 chain: T1 chain with C218G
The series can be described thus: EMSA; 10 mM HEPES pH 8.0, 50 mM KCl, 1 mM EDTA, RT. The note with it: tags: intein-CBD cleaved for EMSA; label: 5'-fluorescein. As to the method:
as §1

Numbering of substitutions follows the chain as printed.

Consider AUUGCAUAUA (ssRNA) [NREU3C (Fl)], for which the binding result in series [1] and in series [2] was “binds” in each case.
